In article PMC10063446 (Nature Immunology, 2023):

Key:
[1] = biological target: SARS-CoV-2 RBD immobilised on the CM5 chip (SARS-CoV-2 wild-type (assumed)); assay: SPR; details: both partners purified
[2] = biological target: T1, recombinant RBD protein of wild-type SARS-CoV-2 (ELISA antigen) (SARS-CoV-2 wild-type, UniProt P0DTC2); assay: ELISA; details: one partner purified
T1 construct: No catalogue number printed

[3] = biological target: T2, recombinant wild-type SARS-CoV-2 S trimer (ELISA antigen) (SARS-CoV-2 wild-type, UniProt P0DTC2); assay: ELISA; details: one partner purified
T2 construct: also called S^WT trimer; recombinant S protein; source: bought: Sino Biological

[4] = biological target: T3, wild-type SARS-CoV-2 S protein expressed on the surface of HEK 293T cells (SARS-CoV-2 wild-type (MN908947.3), UniProt P0DTC2); assay: flow cytometry on cells; details: one partner purified
T3 construct: also called S^WT protein

| Binder | binding result [1] | binding result [2] | binding result [3] | binding result [4] |
| --- | --- | --- | --- | --- |
| P2S-2E9 (full IgG1) (antibody, V domains shown) VH: QITLKESGPTLVKPTQTLTLTCTFSGFSLSTSGVGVGWIRQPPGKALEWLALIYWDDDKRYSPSLKSRLTITKDTSKNQVVLTMTNMDPVDTATYYCARHRIGYIFDYWGQGTLVTVSS VL: QSALTQPASVSGSPGQSITISCTGTSSDVGDFNYVSWYQQHPGKAPKLMIYDVTKRPSGVSNRFSGSKSGNTASLTISGLQAEDEADYCCSSYTTSSISFGGGTKLTVL | binds | binds | binds | binds |
| P5S-3B11 (full IgG1) (antibody, V domains shown, IgG1; group 2) VH: EVQLVESGGGLVQPGGSLRISCAASGLTFTGYWMNWVRQAPGKGLEWVANIKEDGSEKYYVDSVKGRFTISRDNAKNSLYLQMNSLRVEDTAVYYCARLRWLRGNFDHWGQGTLVTVSS VL: NFMLTQPHSVSESPGKTVTISCTGSNGYIANNYVQWYQQRPGSVPTVVIYEDNQRPSGVPDRFSGSIDSSSNSASLIISGLKTEDEADYYCQSYDTPNVVFGGGTKLTVL | binds | – | – | – |
| P2-1B1 (full IgG1) (antibody, V domains shown) VH: QVQLVQSGAEVKRPGSSVKVSCKASGGTFSSYAISWVRQAPGQGPEWMGGIIPIFGTPHNAQKFQGRVTITADESTSTAYMELSSLRSEDTAMYYCSRTKGDILTGYTDYYFDSWGQGTLVTVSS VL: not shown | – | – | binds | – |
| P5-1C8 (full IgG1) (antibody, V domains shown) VH: EVQLVESGGGLIQPGGSLRLSCAASEIIVSRNYMNWVRQAPGKGLEWVSVIYSGGSTFYADSVKGRFTISRDNSENTLYLQMNSLRAEDTAVYYCARGYGDYYFDYWGRGTLVTVSS VL: not shown | – | – | binds | – |
| P5-1H1 (full IgG1) (antibody, V domains shown) VH: EVQLVESGGGLIQPGGSLRLSCAASGITVSSNYMTWVRQPPGKGLEWVSVIYSGGSTFYADPVKGRFTISRDNSRNTLYLQMNSLRAEDTAVYYCARDLQVYGMDVWGQGTTVTVSS VL: DIQLTQSPSFLSASVGDRVTITCRASQGISNFLAWYQQKPGKAPKLLIYAASTLQGGVPSTFSGSGSGTEFTLTISSLQPEDFATYYCQHLNDYPLFGGGTRVEIK | – | – | binds | binds |
